{"source": "paper PMC1885673", "about": "(Nucleic Acids Research, 2007)", "binders": {"B1": {"name": "S. pombe Mnd1 (Mcp7), His-tagged, from pET16b, co-expressed and co-purified with Hop2 (natural protein)", "chain": "MPPKGLSLAEKRRRLEAIFHDSKDFFQLKEVEKLGSKKQIVLQTVKDVLQSLVDDNIVKTEKIGTSNYYWSFPSDAKRSRESVLGSLQAQLDDLKQKSKTLDENISFEKSKRDNEGTENDANQYTLELLHAKESELKLLKTQLSNLNHCNPETFELKNENTKKYMEAANLWTDQIHTLIAFCRDMGADTNQIREYCSIPEDLDDLQLPIL"}, "B2": {"name": "S. pombe Rad51, purified (natural protein)", "chain": "MADTEVEMQVSAADTNNNENGQAQSNYEYDVNVQDEEDEAAAGPMPLQMLEGNGITASDIKKIHEAGYYTVESIAYTPKRQLLLIKGISEAKADKLLGEASKLVPMGFTTATEYHIRRSELITITTGSKQLDTLLQGGVETGSITELFGEFRTGKSQICHTLAVTCQLPIDMGGGEGKCLYIDTEGTFRPVRLLAVADRYGLNGEEVLDNVAYARAYNADHQLELLQQAANMMSESRFSLLVVDSCTALYRTDFSGRGELSARQMHLARFMRTLQRLADEFGIAVVITNQVVAQVDGISFNPDPKKPIGGNILAHSSTTRLSLRKGRGEQRICKIYDSPCLPESEAIFAINSDGVGDPKEIIAPV"}, "B3": {"name": "S. pombe Dmc1, purified (natural protein)", "chain": "MEEFAEGNDDEQMIFSDIEDLTAHGIGMTDIIKLKQAGVCTVQGVHMSTKRFLLKIKGFSEAKVDKLKEAASKMCPANFSTAMEISQNRKKVWSISTGSEALNGILGGGIQSMSITEVFGEFRCGKTQMSHTLCVTAQLPRDMGGAEGKVAFIDTEGTFRPDRIKAIAERFGVDADQAMENIIVSRAYNSEQQMEYITKLGTIFAEDGQYRLLIVDSIMALFRVDYSGRGELSERQQKLNIMLARLNHISEEFNVAVFVTNQVQADPGAAMMFASNDRKPVGGHVMAHASATRLLLRKGRGEERVAKLNDSPDMPEAECSYVITPGGIADVS"}}, "key": {"[1]": {"biological_target": "T1, S. pombe Hop2 (Meu13), His-tagged, from pET28b, co-expressed and co-purified with Mnd1 (S. pombe, UniProt Q9HGK2 1-216)", "T1 sequence": "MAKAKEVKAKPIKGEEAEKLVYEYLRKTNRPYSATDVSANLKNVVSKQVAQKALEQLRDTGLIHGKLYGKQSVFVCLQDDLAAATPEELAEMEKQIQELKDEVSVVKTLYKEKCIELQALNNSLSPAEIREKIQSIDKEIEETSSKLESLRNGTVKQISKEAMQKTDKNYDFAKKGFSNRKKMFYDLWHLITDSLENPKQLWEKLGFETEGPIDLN", "experiment": "co-elution in ion-exchange chromatography"}, "[2]": {"biological_target": "T2, S. pombe Hop2-Mnd1 complex, purified, His-tagged (S. pombe, UniProt Q9HGK2;Q09739)", "T2 sequence 1": "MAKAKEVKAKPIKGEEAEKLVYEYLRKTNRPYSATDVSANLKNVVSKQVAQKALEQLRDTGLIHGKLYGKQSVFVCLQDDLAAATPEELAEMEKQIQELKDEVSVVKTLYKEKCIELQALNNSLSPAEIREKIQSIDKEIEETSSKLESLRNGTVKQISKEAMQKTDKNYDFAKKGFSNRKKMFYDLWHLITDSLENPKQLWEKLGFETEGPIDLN", "T2 sequence 2": "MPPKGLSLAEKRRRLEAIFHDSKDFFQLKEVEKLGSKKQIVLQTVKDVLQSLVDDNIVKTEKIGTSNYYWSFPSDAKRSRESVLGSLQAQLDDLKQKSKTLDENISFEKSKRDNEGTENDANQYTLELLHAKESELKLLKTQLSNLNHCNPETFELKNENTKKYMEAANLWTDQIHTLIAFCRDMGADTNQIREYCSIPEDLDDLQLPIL", "experiment": "pull-down"}}, "data": [{"binder": "B1", "values": [{"measurement": "binding result", "setting": "[1]", "result": "binds"}]}, {"binder": "B2", "values": [{"measurement": "binding result", "setting": "[2]", "result": "binds"}]}, {"binder": "B3", "values": [{"measurement": "binding result", "setting": "[2]", "result": "binds"}]}]}
